Experiment: soluble fraction after stress (log2 fold change); higher = more stays soluble; pooled small domains, quantitative proteomics
Conditions: stress: pH 4
Procedure, shortened: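 After pH 4 stress, pooled custom libraries of small protein domains were quantified with high-throughput quantitative proteomics. Aggregation propensity is taken from the fold change in each domain's soluble amount following the acid stress. The scale is log2, where higher values mean more stayed soluble.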

| Sequence | soluble fraction (log2) |
| --- | --- |
| HMSIEIIEITSNSSPKNLSEIIDIDATQIVADLMGLGIMKAIDTPLENSEIEQLLEKYNLIAEFVE | -2.51 |
| HMKQAINFSDLNSLEEGLGIAIRQKWNEVSINDVPEDKIELVEDWINNNRGKYKGINISIGSTY | 0.0722 |
| HMEPEYIGELEKRIKKLKTHTYSSIDRLMKSISKKYKITTQVLHDDFKNKHNEIPDEWVKQF | 0.22 |
| HMDTLRARQEAAYRFLSAIAGDWRNYEEANRALFAGDAARFQDLTESWPADVRDHARHLASAAFSS | -1.15 |
| HMPVLDETVPAALDGERIDRVVALLADVSRNRAGIAIAAGSVRLDGAVVTQRSRKVRADEELVVDGLER | -0.00165 |
| HMDDNRSLSDLAQQVFKRENIQVSRDTLSLLVSRLGSDRAVSRQEIEKLALFAGSNGKLTEEDIHNALG | -0.195 |
| HMKSKNILLGEYKGKEVHVGEGKYGPFILYDKKFKSIGAYLTENSLMLKDLTIEDYSKIMKFTENSNSKS | 0.0285 |
| HMKNLKPSTEVILKELVKRYPDQTEFRKQQIVDVGQSFGYKGKDYGPIFDADNRVKIGTYDLAGLIVPLQR | 0.0835 |
| HMDTIRINSGSTVKEVAEYLGIPVPEVIKKLMSMGELATLTKTLSDDHIEVLAEEFEKKIKIVHVGEEAD | -0.61 |
| HMVGNEEALRAIVESIIAQNTTEVASFREGKEGLIGWFLGQVMRQTGGKADPKLARQILLELLKQ | -0.492 |
| HMRGLVPEIVGTLEGEIRAGTLAVGQKLPTEAEIMARFDVSRTVVREALSRLQASDLVETRHGIGTFVSAR | 0.163 |
| HMYGTERILAQLANYGIPNKLAFQIQDFYKEETLQIVEQQPYRLVEDIQGMGFKIADQLAEELGI | -1.35 |
| HMSDNLSASERKALSHMEGMESVRSSEVADLLGMSQRGAQKLLNRLVDKGLASSFGANRNRRYSVE | 0.111 |
| HMGDVATVKLDNNGLLNMRKSDARGADIVARIPNGTVVQVLNRETEWTQVRYDGKEGYVMSSFLQFAE | 0.0427 |
| HMHSGFHSAILDVDRAVKEGKTLYEALNKYPYIFDETFRSLVRAGEASGELPSILSKLALYLEEQSK | -1.04 |
| HMKHEFSEEWLDWIKSNIADGQNKNGLFKVLLNHGYAYDAVREVMQYEPTVPLDELVDPLRA | -0.953 |
| HMATKVSSGATVRDVADLLGLSSAELIKKLMMMGEMATLTQTLTDESIKSIADEYDRKIEIVSAAE | -1.22 |
| HMRPEARAASLSDEERKIFDYLAANGEKTIDNISVAVKMSAADILKNITLMSAKGLVYMPSAGRYGVKGN | 0.0795 |
| HMPLEQAELRLDLKQAILQMDRQTQELLLLRYVDGLSPGEAGKVLELSRFAVYRREKEALRKLRDYFSH | -0.834 |
| HMELNEIEFENLKESIIIHLEKESLSPHELVKHIQTIHPDKVTAVIQWMLENGFIKTDAGGQLTLVSK | -0.485 |
| HMDARSTHIAAIHVLKSKLQLQDSDYRALLLTLTGQTSSKDLSEHQRRAVRNHMQQLAERMGVVQ | 0.0263 |
| HMENTIPSVIGRTLSDGVFLLESYGYVKGNVSEEFSEMPIGVIIRQFPGAGSAAEAGTRVDLVVSKGEEIV | -0.316 |
| HMGVKHKHKGAGELLAALRTMFPNSSVSTLRKMLTQGRVVLNGEVVHRAKHELTDGDTIEVLERQRAER | 0.228 |
| HMGVSLNELAYRRFKQALVTLSYKPGEYLNTAQVMNDLDMGRTPINQAIHRLANEGLLQVIPRKGVMVS | 0.026 |
| HMRLNIRTKNNYSYYTIIKDYTNLNGKRTTTIFEKLGNQQQVEERFGKVNTIENIKKYIEELNNE | 0.22 |
| HMMQEIKLEVINNEELRIDNYINLAGIGLSRSYIQKLIKDGVILVNGKEVKSSYKVSLGDIISVQIPDPG | -0.209 |

| Sequence | soluble fraction (log2) |
| --- | --- |
| HMDEFAGSAKPLADGAAPAGYDVKGNKDSMKYHEPGGRWYDATVAEVWFKTAADAEAAGFVKAGA | -0.266 |
| HMARHIHFEVHVQQAGRWSIHAQFGAGQREKAIEEAKKIEKTPGFDSVKVVKETYDSDLGNHQDTTIYRGP | 0.0508 |
| HMKHMTMYEAAKIAKEVGAPKLWLTHYSPSMTRPEEFMDDVRKIFPAAYAAKDGWTMELNFDEG | -0.385 |
| HMRLPNGYGSITKLSGKRRKPFMVRITTGYDNEGKQLMSVLGYYATRTEALAVLAEYNKNPYNPI | 0.109 |
| HMNIEIIEVQEESTPSEISKIISTESTKIIEDLLNLGVMASLETPLKNQDIEKLLEGYGYIVDIKP | -1.84 |
| HMDIMTVGERVKKLAEKQGISLRELAKKAELSYNTVYSITRRGSERVAPDTISRLANALGVNVNELT | ≥ 0.43 |
| HMQDPRITRTRGLILQAFDALLVEKGFHALSVQAIAGRAGINRATFYAHFADKYALLDTSIQE | 0.081 |
| HMTSPKSRIVSALLASPSRPEELAMRLGEDILTLMRTLTDFEASGIIQRLPDGRYTPTREYHLGLVDK | -0.534 |
| HMGLIDNLTRIMEKKNISAYQLEKAGIVKQTTFTSWKKGTQPALDKIIKIMQYIEVTPNELFGY | -0.456 |
| HMDSHSAESVRQRIKDMIAAEASKSILSDDTIVENLKSEGIEIARRTVAKYRESLNIPSSIQRRRIARSEA | 0.0843 |
| HMNGIFEYSDAKKVPSLVEIENAYRRARVNGAEKFAVIINGEYFGYNPQKRGIYKLNDGEYQIL | 0.115 |
| HMKNQQLFNIGDRFQVDGVAYRMEKLFPENGTVEVYNLGVGRHKTMSFEEILALWNSGKLLFEI | -0.945 |
| HMGSQLYTLEVEADEKISLIENNPLLIQKIYLKDNNLFSYKIASSSKTEIASIEKELEKNPSIKRLETA | -0.502 |
| HMDAKNNPQVMAQIRAILTAKGLSEDEVKTRLKTKNIDVDKMTDQEIIAQRPAIEAIINEMEQEKKQKMG | 0.142 |
| HMNTNDFTIGTRVRTTKKGNGSSDGTSNTARSGIEGTITRIIPEAKYPYLVSTTVPMGWYKKDALEK | 0.157 |
| HMHTNNALWAIADDMRARKDDGEFDTYREGYKWAANNIVKEGIHITAIKLEKAYHKAKSEGKV | 0.301 |
| HMSLMLYVEDVDTAFKKAIELGATEIRPVHDQFYGDRAGTLQDPFGHIWIIGTHKEDVSDEELNNRIGNI | -0.332 |
| HMSMSLQFLSRRIRLQREKRGLKQHDIAHALQISPQAVSKWERGENAPDIALLRPLAGLLGVSIDWLMGGD | -1.7 |
| HMLAMHVVESVGGAEQFTKLQNFAKTQNADYQKMWNDTMNSGNVLAIKTMLSGIQSDMIAVQ | -0.466 |
| HMEDPRVTEIKNLQQDLAKKFKPTQGPASASDAVERVTAITTVMTKVAALPEDLRSEAMQPGKKM | -0.0985 |
| HMKYTVKSPLPGVIMSVLVKVGDTVKASDTVISLEAMKMENAIHAGRDGKVTSIDVNVGDSVLEGHTLVTI | -1.04 |
| HMKRAVGLDEYRDSIVLKKPEGYTEESYAAYKNAYDALMALDSKETTAEMFANAKSAFEAAQAGLVQKP | 0.0195 |
| HMSEQVQLQAQVEDDLIGKRLDQVVAQLFPDYSRSRLQGWIKDGSLTVDGESRRPRDKMMGGEVVRVEATL | -0.347 |
| HMNTKHVFIIEQDDEKKRLDIFLVEKLQDSRSFLKKGIVEGWVKVNESVVKPNYKLKQKDQITVIIPP | -0.396 |
| HMDMRLADLIGRDGITITFMRPSGKVEIDGEIYDAVSDVGLIDKNEEVEVIKFENAQLVVTKKNKN | 0.108 |
| HMTTLAADFNSDGRVDIGDLSILAGNWGKSRTNEVDFNKYGDADYNGRIDIIDLSILATQFGQTDNSN | -0.142 |

| Sequence | soluble fraction (log2) |
| --- | --- |
| HMNLGNLAYESKVTKQVLNMIRPLHPEYSSDDITRAVKEILSEEGSRQRRVDEIARGALDVLMGNPR | ≥ 0.43 |
| HMGASVGEVESVKTASEIYTAAAGKIVAVNDAVAKDPSLVNSDPYGNGWLVKLEIADLSAINA | -0.304 |
| HMRKSNADALDGKTGIVKEEIKTGGYGYVGIDGDMWRSISESGEAIPAGTKVVVISHESIILTVKPA | ≥ 0.43 |
| HMGIAEAKRVIVRTLHDVLGPEADFLTEKIDVAQTAAELRVHAEKYRDMLVDMGKPKKSAAFWEAFEAALP | -0.65 |
| HMSTVTEVHYIAFKNGRIVDIKAALTGSAVTATSIKEQPKIENYNYTTSEVRDGILYHTYAPVA | 0.195 |
| HMNYTSEDIKLASELFFHLLNNRILPANDVLASQYYDNNEIREILENMAEEGGLRIFGTRENLHLVSNGE | -1.21 |
| HMATPTEHQLQAQARAVVEKAERLLDRASADDREDIINLIEKITDALAAEDFTAVKAPLAELSDILFYLE | -0.27 |
| HMQWLDSIRSRLRVGQTISYFEPRENASSSGLIIELRRKRVLVLEIATQKRWLIEYAAINVDG | -0.325 |
| HMTNVIPKAMAPFNGSTIIADGIKNIKDHIDNLYITVGYKGATLSEHVINKGVSAVFNTTGKGNAWWVYN | 0.00444 |
| HMDWVAYGAELRRRRLLAGWSVAELSRRTNLSTSIIYQVEQARTRLRPSQLTLAKLAAALGMP | -0.0217 |
| HMDIFFEKIFNILIGYNQNQENLISEKSILNFHLSHKSNSNFEYIPDEKTPKYIWKYLSNYNLLE | -0.477 |
| HMDDPITVAYRETEDAIAQVQREGFPVEMPPANSYIRRIQHELAGRFNLDSESYGDEPERRVRIRPQQ | -0.92 |
| HMQVTEVDYGTFMKMVEEKNVGEVEVGNSMIVFTDKDGKAIYKTGAMNDPNLTERLYNAGASFTKE | -0.209 |
| HMAEKNALWEEDAVYAADSSALARDGYDAIVRTDKGGKKGYLVVGTGGRERFMPLQTLVMLGYLKK | -0.0478 |
| HMEESEMIAFATVAHRIVGKPVEAVMRSYRNRDNIPADIAAIVSSKFTFSVTMAEASYRNPKKSYQVNSII | 0.22 |
| HMLEQEDMYGYQMIETLRERSEHSFDLKAGTLYPLLHALEQKGLITARDEASAAGRPRRYYHLTDAG | -1.05 |
| HMTTIPAGRQQYILSLIRREGTVTVSRLAQELEVSELTIRRDLDQMAARNLVERTHGGATERR | ≥ 0.43 |
| HMNTEEITYSRFQQMLEAGEISQVSIESNRILILPSEETGIEKVLYTGIINDPGLVERLNSAGVEFRAPIE | -1.16 |
| HMKVVEKHIVPQIQNPIRLQEYASSIFKTITTRSGIKKAIKKQLILLNRKPANTGDWIKEGQLLELLAEE | -0.569 |
| HMDNNFIQSLYPIAIGISKNQLDPWDLINGWVEYYLKNKEKYINHPNLKAVAVLKMKGLLIDHFRKS | -1.96 |
| HMADGEWAEMQRQLTAAGLLVVGRAAQERIQRLSDISPLIEAAQRSNVVMLSERTVDEVLTLVPT | -0.468 |
| HMGLPAWVPQNYIDRVTAIYDYSADKDDELTFNEGSTIFVLKKNDDGWWEGVMDGVTGLFPGNYVEAT | -1.63 |
| HMNSLQLGSRGPTVSALQAKLNTMLVPSPRLVADGSFGPKTAQAVKAFQQMKRLVADGVVGPKTAAALGLS | 0.281 |
| HMVSTGIMVVDGRGSVLQHNEAALRQLGVEVLTFESQVKEKLASEDFSVRETTAMLNGKKVRIIAFSDIR | -1.66 |
